Results reported in the Human Domainome abundance scans (Beltran et al. 2025).
± gives the uncertainty stated by the source.

B1: Probable E3 ubiquitin-protein ligase MID2, residues 191 to 235; numbered along this chain, Q9UJV3 (parent)
chain: RGITCLDHENEKVNMYCVSDDQLICALCKLVGRHRDHQVASLNDR

Variants of: B1
Assay: abundance fitness (aPCA) (normalised: wild type 0, dead -1); higher = more abundant; growth selection in yeast, the domain comes from the species named
Conditions: Homo sapiens

| Variant | abundance fitness |
| --- | --- |
| RGITCLDHENEKVEMYCVSDDQLICALCKLVGRHRDHQVASLNDR [N14E] | 0.104 ± 0.069 |
| RGITCLDHENEKVRMYCVSDDQLICALCKLVGRHRDHQVASLNDR [N14R] | -0.087 ± 0.052 |
| RGITCLDHENEKVWMYCVSDDQLICALCKLVGRHRDHQVASLNDR [N14W] | -0.482 ± 0.11 |
| RGITCLDHENEKVVMYCVSDDQLICALCKLVGRHRDHQVASLNDR [N14V] | -0.055 ± 0.06 |
| RGITCLDHENEKVPMYCVSDDQLICALCKLVGRHRDHQVASLNDR [N14P] | -0.434 ± 0.23 |
| RGITCLDHENEKVSMYCVSDDQLICALCKLVGRHRDHQVASLNDR [N14S] | 0.06 ± 0.075 |
| RGITCLDHENEKVGMYCVSDDQLICALCKLVGRHRDHQVASLNDR [N14G] | -0.021 ± 0.05 |
| RGITCLDHENEKVCMYCVSDDQLICALCKLVGRHRDHQVASLNDR [N14C] | -0.204 ± 0.12 |
| RGITCLDHENEKVQMYCVSDDQLICALCKLVGRHRDHQVASLNDR [N14Q] | 0.119 ± 0.093 |
| RGITCLDHENEKVKMYCVSDDQLICALCKLVGRHRDHQVASLNDR [N14K] | 0.015 ± 0.069 |
| RGITCLDHENEKVMMYCVSDDQLICALCKLVGRHRDHQVASLNDR [N14M] | -0.487 ± 0.19 |
| RGITCLDHENEKVAMYCVSDDQLICALCKLVGRHRDHQVASLNDR [N14A] | 0 ± 0.062 |
| RGITCLDHENEKVLMYCVSDDQLICALCKLVGRHRDHQVASLNDR [N14L] | -0.124 ± 0.074 |
| RGITCLDHENEKVDMYCVSDDQLICALCKLVGRHRDHQVASLNDR [N14D] | -0.132 ± 0.1 |
| RGITCLDHENEKVTMYCVSDDQLICALCKLVGRHRDHQVASLNDR [N14T] | 0.049 ± 0.068 |
| RGITCLDHENEKVHMYCVSDDQLICALCKLVGRHRDHQVASLNDR [N14H] | 0.117 ± 0.096 |
| RGITCLDHENEKWNMYCVSDDQLICALCKLVGRHRDHQVASLNDR [V13W] | -0.619 ± 0.18 |
| RGITCLDHENEKINMYCVSDDQLICALCKLVGRHRDHQVASLNDR [V13I] | 0.1 ± 0.12 |
| RGITCLDHENEKQNMYCVSDDQLICALCKLVGRHRDHQVASLNDR [V13Q] | -0.047 ± 0.12 |

| Variant | abundance fitness |
| --- | --- |
| RGITCLDHENEKENMYCVSDDQLICALCKLVGRHRDHQVASLNDR [V13E] | -0.215 ± 0.069 |
| RGITCLDHENEKGNMYCVSDDQLICALCKLVGRHRDHQVASLNDR [V13G] | -0.143 ± 0.05 |
| RGITCLDHENEKANMYCVSDDQLICALCKLVGRHRDHQVASLNDR [V13A] | -0.104 ± 0.057 |
| RGITCLDHENEKRNMYCVSDDQLICALCKLVGRHRDHQVASLNDR [V13R] | -0.077 ± 0.055 |
| RGITCLDHENEKSNMYCVSDDQLICALCKLVGRHRDHQVASLNDR [V13S] | -0.092 ± 0.081 |
| RGITCLDHENEKTNMYCVSDDQLICALCKLVGRHRDHQVASLNDR [V13T] | -0.179 ± 0.075 |
| RGITCLDHENEKVNCYCVSDDQLICALCKLVGRHRDHQVASLNDR [M15C] | 0.259 ± 0.21 |
| RGITCLDHENEKVNTYCVSDDQLICALCKLVGRHRDHQVASLNDR [M15T] | -0.1 ± 0.069 |
| RGITCLDHENEKVNVYCVSDDQLICALCKLVGRHRDHQVASLNDR [M15V] | -0.277 ± 0.069 |
| RGITCLDHENEKVNAYCVSDDQLICALCKLVGRHRDHQVASLNDR [M15A] | 0.063 ± 0.056 |
| RGITCLDHENEKVNQYCVSDDQLICALCKLVGRHRDHQVASLNDR [M15Q] | 0.166 ± 0.07 |
| RGITCLDHENEKVNDYCVSDDQLICALCKLVGRHRDHQVASLNDR [M15D] | 0.001 ± 0.064 |
| RGITCLDHENEKVNGYCVSDDQLICALCKLVGRHRDHQVASLNDR [M15G] | 0.081 ± 0.053 |
| RGITCLDHENEKVNKYCVSDDQLICALCKLVGRHRDHQVASLNDR [M15K] | -0.176 ± 0.12 |
| RGITCLDHENEKVNPYCVSDDQLICALCKLVGRHRDHQVASLNDR [M15P] | -0.251 ± 0.07 |
| RGITCLDHENEKVNFYCVSDDQLICALCKLVGRHRDHQVASLNDR [M15F] | -0.069 ± 0.25 |
| RGITCLDHENEKVNWYCVSDDQLICALCKLVGRHRDHQVASLNDR [M15W] | 0.11 ± 0.058 |
| RGITCLDHENEKVNLYCVSDDQLICALCKLVGRHRDHQVASLNDR [M15L] | 0.003 ± 0.063 |
| RGITCLDHENEKVNRYCVSDDQLICALCKLVGRHRDHQVASLNDR [M15R] | -0.118 ± 0.06 |

| Variant | abundance fitness |
| --- | --- |
| RGITCLDHEHEKVNMYCVSDDQLICALCKLVGRHRDHQVASLNDR [N10H] | -0.036 ± 0.12 |
| RGITCLDHEAEKVNMYCVSDDQLICALCKLVGRHRDHQVASLNDR [N10A] | -0.348 ± 0.052 |
| RGITCLDHETEKVNMYCVSDDQLICALCKLVGRHRDHQVASLNDR [N10T] | -0.26 ± 0.066 |
| RGITCLDHEQEKVNMYCVSDDQLICALCKLVGRHRDHQVASLNDR [N10Q] | -0.313 ± 0.11 |
| RGITCLDHECEKVNMYCVSDDQLICALCKLVGRHRDHQVASLNDR [N10C] | -0.175 ± 0.068 |
| RGITCLDHEGEKVNMYCVSDDQLICALCKLVGRHRDHQVASLNDR [N10G] | -0.198 ± 0.044 |
| RGITCLDHEDEKVNMYCVSDDQLICALCKLVGRHRDHQVASLNDR [N10D] | -0.072 ± 0.073 |
| RGITCLDHELEKVNMYCVSDDQLICALCKLVGRHRDHQVASLNDR [N10L] | -0.102 ± 0.06 |
| RGITCLDHEMEKVNMYCVSDDQLICALCKLVGRHRDHQVASLNDR [N10M] | -0.173 ± 0.075 |
| RGITCLDHEVEKVNMYCVSDDQLICALCKLVGRHRDHQVASLNDR [N10V] | -0.416 ± 0.06 |
| RGITCLDHEWEKVNMYCVSDDQLICALCKLVGRHRDHQVASLNDR [N10W] | -0.394 ± 0.055 |
| RGITCLDHEPEKVNMYCVSDDQLICALCKLVGRHRDHQVASLNDR [N10P] | -0.414 ± 0.11 |
| RGITCLDHEKEKVNMYCVSDDQLICALCKLVGRHRDHQVASLNDR [N10K] | -0.226 ± 0.12 |
| RGITCLDHEREKVNMYCVSDDQLICALCKLVGRHRDHQVASLNDR [N10R] | -0.138 ± 0.048 |
| RGITCLDHESEKVNMYCVSDDQLICALCKLVGRHRDHQVASLNDR [N10S] | -0.156 ± 0.055 |
| RGITCLDHEFEKVNMYCVSDDQLICALCKLVGRHRDHQVASLNDR [N10F] | -0.577 ± 0.12 |
| RGITCLDHEIEKVNMYCVSDDQLICALCKLVGRHRDHQVASLNDR [N10I] | -0.176 ± 0.37 |
| RGITCLDHEEEKVNMYCVSDDQLICALCKLVGRHRDHQVASLNDR [N10E] | -0.55 ± 0.07 |
| RGITCLDHWNEKVNMYCVSDDQLICALCKLVGRHRDHQVASLNDR [E9W] | -0.252 ± 0.054 |
